Patent US20160264649A1

Legend:
Test in all cases: cell-based or functional assay
[1] = molecular target: HIV-1 Env of pseudovirus isolate MGRM-G-016 (subtype G) (HIV-1)
[2] = molecular target: HIV-1 Env of pseudovirus isolate MGRM-G-025 (subtype G) (HIV-1)
[3] = molecular target: HIV-1 Env of isolate 98CN009 (subtype CRF07_BC) (HIV-1)
[4] = molecular target: HIV-1 Env of isolate MGRM-D-024 (subtype D) (HIV-1)
[5] = molecular target: HIV-1 Env of pseudovirus isolate MGRM-G-024 (subtype G) (HIV-1)
[6] = molecular target: HIV-1 Env of isolate MGRM-D-014 (subtype D) (HIV-1)
[7] = molecular target: HIV-1 Env of isolate MGRM-D-001 (subtype D) (HIV-1)
[8] = molecular target: HIV-1 Env of isolate 92UG001 (subtype D) (HIV-1)
[9] = molecular target: HIV-1 Env of pseudovirus isolate MGRM-G-015 (subtype G) (HIV-1)
[10] = molecular target: HIV-1 Env of pseudovirus isolate MGRM-G-017 (subtype G) (HIV-1)
[11] = molecular target: HIV-1 Env of isolate MGRM-F1-012 (subtype F) (HIV-1)
[12] = molecular target: HIV-1 Env of isolate MGRM-D-022 (subtype D) (HIV-1)
[13] = molecular target: HIV-1 Env of isolate MGRM-D-029 (subtype D) (HIV-1)
[14] = molecular target: HIV-1 Env of pseudovirus isolate MGRM-G-009 (subtype G) (HIV-1)
[15] = molecular target: HIV-1 Env of isolate MGRM-D-011 (subtype D) (HIV-1)
[16] = molecular target: HIV-1 Env of pseudovirus isolate MGRM-G-014 (subtype G) (HIV-1)
[17] = molecular target: HIV-1 Env of pseudovirus isolate MGRM-G-004 (subtype G) (HIV-1)
[18] = molecular target: HIV-1 Env of pseudovirus isolate MGRM-G-011 (subtype G) (HIV-1)
[19] = molecular target: HIV-1 Env of pseudovirus isolate MGRM-G-001 (subtype G) (HIV-1)
[20] = molecular target: HIV-1 Env of isolate MGRM-F1-022 (subtype F) (HIV-1)
[21] = molecular target: envelope of aMLV pseudovirus (negative control)
[22] = molecular target: HIV-1 Env of isolate MGRM-F1-016 (subtype F) (HIV-1)
[23] = molecular target: HIV-1 Env of pseudovirus isolate MGRM-G-006 (subtype G) (HIV-1)
[24] = molecular target: HIV-1 Env of isolate MGRM-D-002 (subtype D) (HIV-1)
[25] = molecular target: HIV-1 Env of pseudovirus isolate MGRM-G-028 (subtype G) (HIV-1)
[26] = molecular target: HIV-1 Env of isolate 92UG005 (subtype D) (HIV-1)
[27] = molecular target: HIV-1 Env of isolate MGRM-D-013 (subtype D) (HIV-1)
[28] = molecular target: HIV-1 Env of isolate MGRM-D-005 (subtype D) (HIV-1)
[29] = molecular target: HIV-1 Env of pseudovirus isolate MGRM-G-013 (subtype G) (HIV-1)
[30] = molecular target: HIV-1 Env of isolate MGRM-D-018 (subtype D) (HIV-1)
[31] = molecular target: HIV-1 Env of isolate MGRM-D-021 (subtype D) (HIV-1)
[32] = molecular target: HIV-1 Env of isolate MGRM-D-026 (subtype D) (HIV-1)
[33] = molecular target: HIV-1 Env of isolate 98CN006 (subtype CRF08_BC) (HIV-1)
[34] = molecular target: HIV-1 Env of isolate MGRM-D-016 (subtype D) (HIV-1)
[35] = molecular target: HIV-1 Env of isolate 92UG114 (subtype D) (HIV-1)
[36] = molecular target: HIV-1 Env of isolate MGRM-F1-020 (subtype F) (HIV-1)
[37] = molecular target: HIV-1 Env of isolate MGRM-D-004 (subtype D) (HIV-1)
[38] = molecular target: HIV-1 Env of isolate MGRM-F1-008 (subtype F) (HIV-1)
[39] = molecular target: HIV-1 Env of isolate MGRM-F1-017 (subtype F) (HIV-1)
[40] = molecular target: HIV-1 Env of pseudovirus isolate MGRM-G-019 (subtype G) (HIV-1)
[41] = molecular target: HIV-1 Env of isolate MGRM-D-019 (subtype D) (HIV-1)
[42] = molecular target: HIV-1 Env of isolate MGRM-F1-010 (subtype F) (HIV-1)
[43] = molecular target: HIV-1 Env of isolate 92UG024 (subtype D) (HIV-1)
[44] = molecular target: HIV-1 Env of isolate MGRM-D-020 (subtype D) (HIV-1)
[45] = molecular target: HIV-1 Env of isolate MGRM-F1-018 (subtype F) (HIV-1)
[46] = molecular target: HIV-1 Env of isolate MGRM-F1-014 (subtype F) (HIV-1)
[47] = molecular target: HIV-1 Env of isolate MGRM-F1-006 (subtype F) (HIV-1)
[48] = molecular target: HIV-1 Env of isolate 92UG046 (subtype D) (HIV-1)
[49] = molecular target: HIV-1 Env of isolate MGRM-F1-023 (subtype F) (HIV-1)
[50] = molecular target: HIV-1 Env of isolate MGRM-D-003 (subtype D) (HIV-1)
[51] = molecular target: HIV-1 Env of isolate MGRM-F1-004 (subtype F) (HIV-1)
[52] = molecular target: HIV-1 Env of isolate MGRM-F1-015 (subtype F) (HIV-1)
[53] = molecular target: HIV-1 Env of isolate MGRM-D-008 (subtype D) (HIV-1)
[54] = molecular target: HIV-1 Env of isolate MGRM-F1-013 (subtype F) (HIV-1)
[55] = molecular target: HIV-1 Env of isolate MGRM-D-028 (subtype D) (HIV-1)
[56] = molecular target: HIV-1 Env of isolate MGRM-D-012 (subtype D) (HIV-1)
[57] = molecular target: HIV-1 Env of isolate MGRM-F1-021 (subtype F) (HIV-1)
[58] = molecular target: HIV-1 Env of pseudovirus isolate MGRM-G-027 (subtype G) (HIV-1)

Sequence of PGT-145 (antibody) (VH): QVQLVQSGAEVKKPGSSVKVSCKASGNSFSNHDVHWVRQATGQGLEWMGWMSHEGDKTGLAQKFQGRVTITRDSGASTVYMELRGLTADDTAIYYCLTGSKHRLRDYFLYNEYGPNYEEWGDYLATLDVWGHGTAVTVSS
Sequence of PGT-145 (antibody) (VL): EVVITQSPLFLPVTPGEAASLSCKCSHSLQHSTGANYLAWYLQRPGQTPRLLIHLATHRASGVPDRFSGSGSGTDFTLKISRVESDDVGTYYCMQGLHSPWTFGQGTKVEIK
Sequence of PGT-142 (antibody) (VH): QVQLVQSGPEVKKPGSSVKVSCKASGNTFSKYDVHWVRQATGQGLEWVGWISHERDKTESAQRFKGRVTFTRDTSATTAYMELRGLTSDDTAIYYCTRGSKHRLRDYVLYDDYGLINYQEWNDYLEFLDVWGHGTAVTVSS
Sequence of PGT-142 (antibody) (VL): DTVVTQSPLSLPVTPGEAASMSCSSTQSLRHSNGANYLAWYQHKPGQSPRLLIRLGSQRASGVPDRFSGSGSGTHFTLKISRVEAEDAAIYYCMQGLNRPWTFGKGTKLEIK

## PGT-122 (antibody)
[1]
  IC50: > 50 µg/mL
[2]
  IC50: 0.079 µg/mL
[3]
  IC50 (neutralization): 0.013 µg/mL
[4]
  IC50 (neutralization): 0.185 µg/mL
[5]
  IC50: 0.033 µg/mL
[6]
  IC50 (neutralization): 0.012 µg/mL
[7]
  IC50 (neutralization): 1.13 µg/mL
[8]
  IC50 (neutralization): > 50 µg/mL
[9]
  IC50: > 50 µg/mL
[10]
  IC50: 0.032 µg/mL
[11]
  IC50 (neutralization): > 50 µg/mL
[12]
  IC50 (neutralization): > 50 µg/mL
[13]
  IC50 (neutralization): > 50 µg/mL
[14]
  IC50: 0.514 µg/mL
[15]
  IC50 (neutralization): 0.019 µg/mL
[16]
  IC50: 0.008 µg/mL
[17]
  IC50: 2.15 µg/mL
[18]
  IC50: 31.3 µg/mL
[19]
  IC50: 0.005 µg/mL
[20]
  IC50 (neutralization): 0.277 µg/mL
[21]
  IC50: > 50 µg/mL
[22]
  IC50 (neutralization): 4.81 µg/mL
[23]
  IC50: > 50 µg/mL
[24]
  IC50 (neutralization): 0.005 µg/mL
[25]
  IC50: 0.01 µg/mL
[26]
  IC50 (neutralization): > 50 µg/mL
[27]
  IC50 (neutralization): > 50 µg/mL
[28]
  IC50 (neutralization): > 50 µg/mL
[29]
  IC50: 3.45 µg/mL
[30]
  IC50 (neutralization): 0.007 µg/mL
[31]
  IC50 (neutralization): 11.7 µg/mL
[32]
  IC50 (neutralization): > 50 µg/mL
[33]
  IC50 (neutralization): 0.021 µg/mL
[34]
  IC50 (neutralization): > 50 µg/mL
[35]
  IC50 (neutralization): 0.011 µg/mL
[36]
  IC50 (neutralization): 0.321 µg/mL
[37]
  IC50 (neutralization): > 50 µg/mL
[38]
  IC50 (neutralization): > 50 µg/mL
[39]
  IC50 (neutralization): > 50 µg/mL
[40]
  IC50: 0.016 µg/mL
[41]
  IC50 (neutralization): > 50 µg/mL
[42]
  IC50 (neutralization): 0.024 µg/mL
[43]
  IC50 (neutralization): > 50 µg/mL
[44]
  IC50 (neutralization): 0.007 µg/mL
[45]
  IC50 (neutralization): 0.563 µg/mL
[46]
  IC50 (neutralization): 0.195 µg/mL
[47]
  IC50 (neutralization): 3.27 µg/mL
[48]
  IC50 (neutralization): > 50 µg/mL
[49]
  IC50 (neutralization): 0.154 µg/mL
[50]
  IC50 (neutralization): > 50 µg/mL
[51]
  IC50 (neutralization): 1.29 µg/mL
[52]
  IC50 (neutralization): 31.4 µg/mL
[53]
  IC50 (neutralization): > 50 µg/mL
[54]
  IC50 (neutralization): 0.152 µg/mL
[55]
  IC50 (neutralization): 3.34 µg/mL
[56]
  IC50 (neutralization): > 50 µg/mL
[57]
  IC50 (neutralization): 2.3 µg/mL
[58]
  IC50: 0.606 µg/mL

## PGT-142 (antibody)
[1]
  IC50: 8.17 µg/mL
[2]
  IC50: > 50 µg/mL
[3]
  IC50 (neutralization): 4 µg/mL
[5]
  IC50: 0.054 µg/mL
[8]
  IC50 (neutralization): > 50 µg/mL
[9]
  IC50: > 50 µg/mL
[10]
  IC50: 0.125 µg/mL
[14]
  IC50: 2.81 µg/mL
[16]
  IC50: 0.076 µg/mL
[17]
  IC50: > 50 µg/mL
[18]
  IC50: 0.046 µg/mL
[19]
  IC50: 0.362 µg/mL
[21]
  IC50: > 50 µg/mL
[23]
  IC50: 0.019 µg/mL
[25]
  IC50: 30.3 µg/mL
[26]
  IC50 (neutralization): > 50 µg/mL
[29]
  IC50: > 50 µg/mL
[33]
  IC50 (neutralization): > 50 µg/mL
[40]
  IC50: 5.95 µg/mL
[43]
  IC50 (neutralization): > 50 µg/mL
[48]
  IC50 (neutralization): > 50 µg/mL
[58]
  IC50: > 50 µg/mL

## PGT-145 (antibody)
[1]
  IC50: 0.081 µg/mL
[2]
  IC50: > 50 µg/mL
[3]
  IC50 (neutralization): 0.136 µg/mL
[5]
  IC50: 0.06 µg/mL
[8]
  IC50 (neutralization): > 50 µg/mL
[9]
  IC50: 10.5 µg/mL
[10]
  IC50: 0.205 µg/mL
[14]
  IC50: 0.982 µg/mL
[16]
  IC50: 0.144 µg/mL
[17]
  IC50: > 50 µg/mL
[18]
  IC50: 0.028 µg/mL
[19]
  IC50: 0.028 µg/mL
[21]
  IC50: > 50 µg/mL
[23]
  IC50: 0.286 µg/mL
[25]
  IC50: 0.046 µg/mL
[26]
  IC50 (neutralization): > 50 µg/mL
[29]
  IC50: > 50 µg/mL
[33]
  IC50 (neutralization): > 50 µg/mL
[40]
  IC50: 0.041 µg/mL
[43]
  IC50 (neutralization): 1.6 µg/mL
[48]
  IC50 (neutralization): > 50 µg/mL
[58]
  IC50: 0.433 µg/mL
